Test results from US20170107289A1 (SORRENTO THERAPEUTICS, published 2017).
“And” between values parts separate entries of the source, which are not always exact repeats. Equal entries are not always repeated. Blank lines part the entries; values can stand above or below the binder they belong to.

Assays:
[1] = target: T1, recombinant human STAT3 proteins (human, UniProt P40763 1-770, limits assumed); assay: binding ELISA with Superblock as blocking buffer; coated antigen not named on the sheet (legend paragraph 30 says 'to human IgG'), taken as STAT3 by analogy with the title of FIG. 10; OD 450 nm; the EC50 row has no unit, x axis in ng/ml
T1 construct: It may be the same STAT3-GST as in the Biacore assay

[2] = target: T2, Recombinant human STAT3-GST (human, UniProt P40763 1-770); assay: SPR (Biacore T200), antibody captured on anti-human Fc, STAT3-GST as analyte, 1:1 model
T2 construct: The order of STAT3 and GST follows the printed name 'STAT3-GST' only; not shown: GST (glutathione S-transferase) tag
Description: Anti-human Fc antibody (GE, BR-1008-39) was immobilized on a CMS sensor chip to approximately 1000 RU using standard NHS/EDC coupling methodology. Antibodies (approximately 10 ug/ml) were captured for 60 seconds at a flow rate of 10 ul/min Recombinant human STAT3-GST was serially diluted 2-fold into running buffer (HBS-EP+, starting from […]). All measurements were conducted at a flow rate of 30 ul/min Surfaces were regenerated with 3M MgCl₂ (from human antibody kit) for 60 seconds. A 1:1 (Langmuir) binding model was used to fit the data.

[3] = target: T1, recombinant human STAT3 proteins; assay: 'Binding ELISA, Hu-IgO Detection' (sheet title, 01052015), Superblock as blocking buffer; coated antigen not named, taken as STAT3 by analogy with the title of FIG. 10; OD 450 nm; the EC50 row has no unit, x axis in ng/ml
[4] = target: T1, recombinant human STAT3 proteins; assay: ELISA on recombinant human STAT3 (sheet title 'STAT 3 binding'); Abs 450
[5] = target: T3, STAT3 in fixed or permeabilized human tumour cells (U251 glioblastoma); MDA-MB-468 / MDA-MB-435 breast cancer … (human, UniProt P40763 2-770); assay: flow cytometry (HTFC) on permeabilized U251 cells; PE anti-human IgG; MFI
T3 construct: whole, on cells; STAT3 is intracellular and the cells were permeabilized; also called cellular antigens; cellular targets
Description: After 45 minutes at room temperature, cells were washed twice and incubated with phycoerythrin (PE) conjugated-anti-human IgG for 20 minutes at room temperature in the dark. Cells were then washed and analyzed by high throughput flow cytometry (HTFC). The results are shown in FIG. 9 for assessment of antibody binding to cellular antigens in U251 cells.

[6] = target: T3, STAT3 in fixed or permeabilized human …; assay: flow cytometry on fixed, methanol-permeabilized U251 cells; PE anti-human IgG; MFI (FL-2)
Description: (§1) Next, the binding of the candidate anti-STAT3 antibodies to cellular targets was tested in cell binding assays using MDA-MB-435 breast cancer cells and U251 cells. The cells were seeded overnight in a 96 well plate, then fixed with PFA and permeabilized with methanol. Cells were incubated with serial dilutions of the anti-STAT3 antibody candidates ST1A5, ST3G12 and ST5G12 for one hour and 30 minutes. Following incubation, the cells were washed and incubated for 30 minutes with phycoerythrin (PE) conjugated anti-human IgG. Fluorescence was measured on an Intellicyte high-throughput flow cytometry analyzer. […] Bevacizumab (Avastin), a monoclonal antibody that inhibits vascular endothelial growth factor A (VEGF-A) was used as a negative control. As shown in FIG. 8A and FIG. 8B, the anti-STAT3 antibodies ST5G12 and ST3G12 both bound STAT3, with ST5G12 being an especially strong binder.

GST protein = GST protein (UniProt P08515 1-218 = GST); assay: SPR (Biacore T200), antibody captured on anti-human Fc
[7] = target: T1, recombinant human STAT3 proteins; assay: STAT3 binding ELISA, Hu-IgG-FAB detection (sheet title; legend paragraph 22 says 'to human IgG'); OD 450 nm; the EC50 column has no unit, x axis in ng/ml
[8] = target: T1, recombinant human STAT3 proteins; assay: 'Binding ELISA, Hu-IgO Detection' (sheet title), Superblock as blocking buffer; second column of the table taken as the curve labelled 901a; coated antigen not named, taken as STAT3; the EC50 row has no unit, x axis in ng/ml
[9] = target: T1, recombinant human STAT3 proteins; assay: binding ELISA with Superblock as blocking buffer; second column of the table taken as the curve labelled 901a (only two curves, two columns); coated antigen not named on the sheet, taken as STAT3; the EC50 row has no unit, x axis in ng/ml
[10] = target: T3, STAT3 in fixed or permeabilized human …; assay: flow cytometry on fixed, methanol-permeabilized MDA-MB-468 cells (sheet title; legend paragraph 19 says MDA-MB-435); PE anti-human IgG; MFI (FL-2)
Description: as §1

T3 sequence (P40763 2-770): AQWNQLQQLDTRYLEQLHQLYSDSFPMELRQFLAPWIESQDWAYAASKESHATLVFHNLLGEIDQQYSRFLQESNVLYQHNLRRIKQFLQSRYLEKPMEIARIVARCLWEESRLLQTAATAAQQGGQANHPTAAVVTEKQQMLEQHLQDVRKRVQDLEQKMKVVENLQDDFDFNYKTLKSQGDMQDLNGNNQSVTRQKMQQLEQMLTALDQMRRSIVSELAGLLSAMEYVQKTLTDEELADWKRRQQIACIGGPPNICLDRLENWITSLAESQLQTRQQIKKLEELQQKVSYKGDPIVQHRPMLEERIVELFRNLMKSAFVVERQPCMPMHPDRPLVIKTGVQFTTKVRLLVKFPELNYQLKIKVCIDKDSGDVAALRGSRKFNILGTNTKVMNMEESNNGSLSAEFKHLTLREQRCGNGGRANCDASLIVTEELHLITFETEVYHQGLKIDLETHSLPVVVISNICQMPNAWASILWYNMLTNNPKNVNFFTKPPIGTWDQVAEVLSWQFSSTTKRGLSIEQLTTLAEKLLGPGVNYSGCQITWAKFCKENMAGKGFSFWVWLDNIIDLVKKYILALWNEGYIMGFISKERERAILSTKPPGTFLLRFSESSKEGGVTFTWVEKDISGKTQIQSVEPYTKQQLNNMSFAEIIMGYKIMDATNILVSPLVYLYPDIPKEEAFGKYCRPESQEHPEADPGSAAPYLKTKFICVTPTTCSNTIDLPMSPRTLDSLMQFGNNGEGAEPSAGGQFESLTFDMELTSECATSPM
T1 sequence (P40763 whole entry): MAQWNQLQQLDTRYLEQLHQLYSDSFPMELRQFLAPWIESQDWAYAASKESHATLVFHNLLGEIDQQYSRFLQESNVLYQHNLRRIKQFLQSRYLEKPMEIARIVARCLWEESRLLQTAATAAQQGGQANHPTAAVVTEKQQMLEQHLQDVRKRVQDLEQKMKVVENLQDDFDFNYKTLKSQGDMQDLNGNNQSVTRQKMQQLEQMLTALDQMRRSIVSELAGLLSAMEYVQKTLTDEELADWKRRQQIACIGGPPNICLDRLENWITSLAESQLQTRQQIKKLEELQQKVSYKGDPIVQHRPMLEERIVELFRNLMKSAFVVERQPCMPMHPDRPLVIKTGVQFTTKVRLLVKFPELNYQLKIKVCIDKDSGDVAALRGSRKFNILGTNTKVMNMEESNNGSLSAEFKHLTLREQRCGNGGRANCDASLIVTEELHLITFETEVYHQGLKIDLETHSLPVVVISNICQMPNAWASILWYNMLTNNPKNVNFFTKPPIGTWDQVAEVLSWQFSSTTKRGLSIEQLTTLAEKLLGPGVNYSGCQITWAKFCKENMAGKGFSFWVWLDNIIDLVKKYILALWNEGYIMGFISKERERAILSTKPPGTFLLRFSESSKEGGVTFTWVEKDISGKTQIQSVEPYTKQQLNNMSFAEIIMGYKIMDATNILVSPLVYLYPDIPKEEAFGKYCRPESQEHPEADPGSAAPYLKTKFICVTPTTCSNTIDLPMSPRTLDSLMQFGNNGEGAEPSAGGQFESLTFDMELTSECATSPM
T2 sequence (P40763 whole entry): as above
Chain of GST protein (P08515 whole entry): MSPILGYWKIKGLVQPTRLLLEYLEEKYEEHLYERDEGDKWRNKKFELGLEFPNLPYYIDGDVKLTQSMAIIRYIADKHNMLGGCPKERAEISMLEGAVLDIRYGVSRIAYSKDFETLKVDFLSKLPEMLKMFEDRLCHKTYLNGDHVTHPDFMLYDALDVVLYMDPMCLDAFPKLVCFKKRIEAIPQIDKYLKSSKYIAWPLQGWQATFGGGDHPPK

- EC50 [1]: 0.122 µg/mL
- Kd [2]: 5.39 nM
- koff [2]: 0.000322 s⁻¹
- kon [2]: 59700 M⁻¹ s⁻¹
- EC50 [3]: 0.0257 µg/mL
- EC50 (read off the curve) [4]: ~0.06 µg/mL
- EC50 (read off the curve) [5]: ~9 nM
- EC50 (read off the curve) [6]: ~4 nM
- binding result (GST protein): no binding
- EC50 [7]: 0.155 µg/mL
B1: anti-STAT3 antibody ST3G12 (unmodified) (antibody, V domains shown)
VH: QVQLVQSGAEVKKPGASVKVSCKASGYTFTSYYMHWVRQAPGQGLEWMGIINPSGGSTSYAQKFQGRVTMTRDTSTSTVYMELSSLRSEDTAVYYCARSDYVHSFDIWGQGTMVTVSS
VL: QPVLTQPPSASALLGASIKLTCTLSSEHSTYTVEWYQQRPGRSPQYIMNVKSDGSYNKGDGIPDRFMGSSSGADRYLTFSNLQSDDEAEYHCGESHRIDGQVGVVFGGGTKLTVL
notes: also called naked anti-STAT3 ST3G12 antibody

- Kd [2]: 0.222 nM
- koff [2]: 0.00011 s⁻¹
- kon [2]: 494000 M⁻¹ s⁻¹
- EC50 (read off the curve) [4]: ~0.06 µg/mL and ~0.1 µg/mL
- binding result (GST protein): no binding
- EC50 [8]: 0.0643 µg/mL
- EC50 [7]: 0.153 µg/mL
- EC50 [9]: 0.186 µg/mL
B2: compound 901a (ST3G12 conjugated to the phosphorothioate oligonucleotide, non-fluorescein version) (antibody, V domains shown)
VH: B1 VH
VL: B1 VL
modifications: phosphorothioate oligonucleotide joined to the antibody through a linker; residue(s) and chain of attachment not stated
notes: also called ST3G12-PS

- EC50 (read off the curve) [6]: ~8 nM
- EC50 (read off the curve) [10]: ~6 nM
B3: anti-STAT3 antibody ST1A5 (antibody, V domains shown)
VH: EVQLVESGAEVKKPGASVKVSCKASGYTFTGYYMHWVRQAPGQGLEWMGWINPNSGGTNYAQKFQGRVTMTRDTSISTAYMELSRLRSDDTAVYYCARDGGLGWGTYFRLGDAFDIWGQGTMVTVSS
VL: QSVLTQPPSVSKGLRQTATLTCTGNSNNVGNEGAAWLQQHQGHPPKLLSYRNFNRPSGISERFSASRSGNTASLTITGLQPEDEADYYCSAWDSSLSAWVFGGGTKLTVL
notes: Human antibody; it was detected with anti-human IgG
